*1 amine or outer side, *2 acyl side, *3 side chain or, on linkers, in order; H or OH if unused. Where a SMILES comes first, the peptide text is derived from it. [ ]: non-standard residue; d: D form. Arg(ω,ω'-(C6H13OCO)2) = CCCCCCOC(=O)N=C(NCCC[C@H](N)C(=O)O)NC(=O)OCCCCCC; X1 = CCCCCCOC(=O)N=C(NCCC[C@@H](N[*:1])C(=O)[*:2])NC(=O)OCCCCCC; dNMeR = CN[C@H](CCCNC(=N)N)C(=O)O; NMeD = CN[C@@H](CC(=O)O)C(=O)O; NMeV = CN[C@H](C(=O)O)C(C)C; NMeA = CN[C@@H](C)C(=O)O; dNMeA = CN[C@H](C)C(=O)O
Legend:
[1] = shake flask in triplicate (rotator; centrifuged); both phases by HPLC-MS/MS; mebendazole reference; details: PBS pH 7.4, mutually saturated, not stated C, DMSO stock (small aliquot)
human αvβ5-integrin = biological target: T1, human αvβ5-integrin (human, UniProt P06756 31-992; P18084 24-719, limits assumed); test: solid-phase competition assay: soluble human αvβ5 on coated vitronectin
T1 construct: Soluble integrin bought from Millipore

human αvβ3-integrin = biological target: T2, human αvβ3-integrin (human, UniProt P06756 31-992; P05106 27-718); test: solid-phase competition assay: soluble human αvβ3 on coated vitronectin
T2 construct: Soluble integrin bought from R&D; also called integrin subtype αvβ3; αvβ3 receptor

human αvβ6-Integrin [2] = biological target: T3, human αvβ6-Integrin (human, UniProt P06756 31-992; P18564 22-707, limits assumed); test: solid-phase competition assay: soluble human αvβ6 on coated LAP (TGF-β)
T3 construct: Soluble integrin bought from R&D

human αvβ8-Integrin = biological target: T4, human αvβ8-Integrin (human, UniProt P06756 31-992; P26012 43-684); test: solid-phase competition assay; value given for the internal standard
T4 construct: Soluble integrin bought from R&D

human αvβ6-Integrin [3] = biological target: T3, human αvβ6-Integrin; test: as above

T2 sequence (P06756 31-992 limits assumed, chain 1 of 2): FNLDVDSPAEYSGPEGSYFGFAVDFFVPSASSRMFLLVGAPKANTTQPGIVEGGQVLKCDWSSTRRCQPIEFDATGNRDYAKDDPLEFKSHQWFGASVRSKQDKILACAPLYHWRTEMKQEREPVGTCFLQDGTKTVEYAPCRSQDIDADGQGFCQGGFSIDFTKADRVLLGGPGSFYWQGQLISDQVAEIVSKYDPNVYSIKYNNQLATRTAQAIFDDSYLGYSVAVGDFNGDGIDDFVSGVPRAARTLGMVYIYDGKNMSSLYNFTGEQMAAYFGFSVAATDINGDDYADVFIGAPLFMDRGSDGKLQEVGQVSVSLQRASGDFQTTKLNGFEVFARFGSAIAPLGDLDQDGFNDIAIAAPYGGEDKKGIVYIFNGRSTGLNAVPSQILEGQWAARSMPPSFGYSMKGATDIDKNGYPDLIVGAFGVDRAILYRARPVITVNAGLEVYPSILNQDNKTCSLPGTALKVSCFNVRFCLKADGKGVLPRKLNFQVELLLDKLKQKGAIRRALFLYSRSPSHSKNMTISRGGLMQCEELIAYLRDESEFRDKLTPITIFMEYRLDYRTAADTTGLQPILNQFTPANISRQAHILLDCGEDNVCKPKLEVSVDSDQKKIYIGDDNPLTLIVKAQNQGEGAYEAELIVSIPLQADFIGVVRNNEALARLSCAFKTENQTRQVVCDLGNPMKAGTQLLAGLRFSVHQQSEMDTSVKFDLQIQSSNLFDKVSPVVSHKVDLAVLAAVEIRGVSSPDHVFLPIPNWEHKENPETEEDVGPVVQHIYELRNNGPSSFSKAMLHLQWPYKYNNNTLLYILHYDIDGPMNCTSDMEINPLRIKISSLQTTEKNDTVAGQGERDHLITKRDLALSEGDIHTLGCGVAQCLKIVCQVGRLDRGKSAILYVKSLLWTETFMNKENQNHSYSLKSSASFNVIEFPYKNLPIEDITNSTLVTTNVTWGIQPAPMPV
T2 sequence (P05106 27-718 limits assumed, chain 2 of 2): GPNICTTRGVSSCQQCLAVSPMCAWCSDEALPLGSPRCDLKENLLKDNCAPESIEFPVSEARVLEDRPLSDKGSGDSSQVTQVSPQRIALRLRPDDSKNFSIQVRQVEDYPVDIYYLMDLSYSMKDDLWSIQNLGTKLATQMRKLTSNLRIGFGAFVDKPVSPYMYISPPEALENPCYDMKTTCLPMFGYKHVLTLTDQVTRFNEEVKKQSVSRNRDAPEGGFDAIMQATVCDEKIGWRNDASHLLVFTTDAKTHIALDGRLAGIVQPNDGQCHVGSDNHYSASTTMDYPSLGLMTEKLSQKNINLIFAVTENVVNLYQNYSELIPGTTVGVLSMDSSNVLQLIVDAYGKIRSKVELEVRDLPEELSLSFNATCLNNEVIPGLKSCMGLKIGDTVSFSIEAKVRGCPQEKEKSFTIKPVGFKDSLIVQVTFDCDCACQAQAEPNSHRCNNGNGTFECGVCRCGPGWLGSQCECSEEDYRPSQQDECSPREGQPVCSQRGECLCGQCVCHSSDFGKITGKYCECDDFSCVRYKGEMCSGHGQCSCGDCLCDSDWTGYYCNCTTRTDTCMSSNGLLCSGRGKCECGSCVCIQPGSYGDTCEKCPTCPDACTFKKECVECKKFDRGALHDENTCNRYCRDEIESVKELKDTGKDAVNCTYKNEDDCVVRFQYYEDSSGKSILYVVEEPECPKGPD
T3 sequence (P06756 31-992 limits assumed, chain 1 of 2): as the sequence (P06756 31-992 limits assumed, chain 1 of 2) above
T3 sequence (P18564 22-707 limits assumed, chain 2 of 2): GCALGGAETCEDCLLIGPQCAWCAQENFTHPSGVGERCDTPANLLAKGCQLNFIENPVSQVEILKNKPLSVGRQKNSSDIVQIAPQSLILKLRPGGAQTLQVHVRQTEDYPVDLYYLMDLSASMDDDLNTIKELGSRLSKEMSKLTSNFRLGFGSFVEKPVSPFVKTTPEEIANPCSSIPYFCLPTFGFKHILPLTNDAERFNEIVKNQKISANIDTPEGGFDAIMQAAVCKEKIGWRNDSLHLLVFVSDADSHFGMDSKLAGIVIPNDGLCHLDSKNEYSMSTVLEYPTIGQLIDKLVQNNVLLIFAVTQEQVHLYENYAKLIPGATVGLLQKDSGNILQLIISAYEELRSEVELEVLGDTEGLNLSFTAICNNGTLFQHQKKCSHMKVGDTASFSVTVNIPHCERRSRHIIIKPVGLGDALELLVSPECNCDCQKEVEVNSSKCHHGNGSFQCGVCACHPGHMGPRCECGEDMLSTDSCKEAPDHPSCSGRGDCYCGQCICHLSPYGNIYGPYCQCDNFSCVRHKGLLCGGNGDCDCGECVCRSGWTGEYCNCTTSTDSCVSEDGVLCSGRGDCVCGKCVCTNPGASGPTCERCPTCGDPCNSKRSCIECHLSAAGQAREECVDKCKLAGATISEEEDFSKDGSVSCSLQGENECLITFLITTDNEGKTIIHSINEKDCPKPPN
T1 sequence (P06756 31-992 limits assumed, chain 1 of 2): as the sequence (P06756 31-992 limits assumed, chain 1 of 2) above
T1 sequence (P18084 24-719 limits assumed, chain 2 of 2): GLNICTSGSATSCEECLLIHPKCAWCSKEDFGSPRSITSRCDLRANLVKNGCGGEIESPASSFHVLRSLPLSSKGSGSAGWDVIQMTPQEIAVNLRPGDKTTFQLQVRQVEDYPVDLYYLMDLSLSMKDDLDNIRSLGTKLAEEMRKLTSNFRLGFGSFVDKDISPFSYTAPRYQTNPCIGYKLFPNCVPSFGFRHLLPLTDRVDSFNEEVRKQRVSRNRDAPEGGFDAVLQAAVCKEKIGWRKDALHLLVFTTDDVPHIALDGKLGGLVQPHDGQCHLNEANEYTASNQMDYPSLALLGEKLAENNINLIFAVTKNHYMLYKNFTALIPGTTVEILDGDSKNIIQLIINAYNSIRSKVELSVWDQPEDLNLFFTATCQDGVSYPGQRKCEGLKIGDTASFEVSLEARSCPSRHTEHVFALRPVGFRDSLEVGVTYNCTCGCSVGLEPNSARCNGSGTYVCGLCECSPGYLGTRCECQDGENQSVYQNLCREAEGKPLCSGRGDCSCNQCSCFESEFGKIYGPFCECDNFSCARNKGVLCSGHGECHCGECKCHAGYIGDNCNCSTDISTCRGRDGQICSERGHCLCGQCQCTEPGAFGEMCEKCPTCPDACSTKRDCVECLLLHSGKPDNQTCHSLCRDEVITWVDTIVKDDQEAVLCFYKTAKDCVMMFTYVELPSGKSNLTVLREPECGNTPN
T4 sequence (P06756 31-992 limits assumed, chain 1 of 2): as the sequence (P06756 31-992 limits assumed, chain 1 of 2) above
T4 sequence (P26012 43-684 limits assumed, chain 2 of 2): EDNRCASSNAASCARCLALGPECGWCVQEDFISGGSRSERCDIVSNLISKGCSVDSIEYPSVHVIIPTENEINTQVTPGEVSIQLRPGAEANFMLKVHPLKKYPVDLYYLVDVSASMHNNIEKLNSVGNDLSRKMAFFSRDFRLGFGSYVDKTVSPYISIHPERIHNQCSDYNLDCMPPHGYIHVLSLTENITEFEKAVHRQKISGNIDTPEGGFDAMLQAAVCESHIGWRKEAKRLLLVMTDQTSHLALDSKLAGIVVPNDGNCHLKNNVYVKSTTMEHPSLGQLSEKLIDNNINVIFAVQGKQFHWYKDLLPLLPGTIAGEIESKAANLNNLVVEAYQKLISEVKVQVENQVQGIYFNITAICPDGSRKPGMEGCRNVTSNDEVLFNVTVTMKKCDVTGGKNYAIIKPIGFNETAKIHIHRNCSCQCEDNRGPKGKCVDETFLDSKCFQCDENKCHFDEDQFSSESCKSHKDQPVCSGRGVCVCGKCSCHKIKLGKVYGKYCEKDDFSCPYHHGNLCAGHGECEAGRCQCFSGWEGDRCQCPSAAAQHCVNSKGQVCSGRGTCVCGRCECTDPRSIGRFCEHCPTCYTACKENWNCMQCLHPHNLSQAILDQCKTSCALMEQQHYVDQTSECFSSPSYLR

Molecule | log D (1-octanol / PBS pH 7.4) [1] | IC50 (human αvβ3-integrin) | also measured
CC(C)C[C@@H]1NC(=O)CNC(=O)[C@@H]2CCCN2C(=O)[C@@H]2CCCN2C(=O)[C@H](CC(C)C)NC(=O)[C@H](CC(=O)O)NC(=O)CNC(=O)[C@H](CCCNC(=N)N)NC1=O (cyclo(RGDLPPGL)) | <−1 log units |  | 
CCCCCCOC(=O)N=C(NCCC[C@@H]1NC(=O)[C@H](C(C)C)N(C)C(=O)[C@@H](Cc2ccccc2)NC(=O)[C@H](CC(=O)O)NC(=O)CNC1=O)NC(=O)OCCCCCC | 3.95 log units |  | 
CC(C)[C@@H]1C(=O)N[C@@H](CCCNC(=N)N)C(=O)NCC(=O)N[C@@H](CC(=O)O)C(=O)N[C@@H](C)C(=O)N(C)[C@@H](C)C(=O)N1C | <−1 log units |  | 
COC(=O)Nc1nc2cc(C(=O)c3ccccc3)ccc2[nH]1 | 3.04 log units |  | 
CCCCCCOC(=O)NC(=N)NCCC[C@@H]1NC(=O)[C@@H](C(C)C)N(C)C(=O)[C@H](C)N(C)C(=O)[C@H](C)NC(=O)[C@H](CC(=O)OC)NC(=O)CNC1=O | 1.85 log units |  | 
CCCCCCOC(=O)N=C(NCCC[C@@H]1NC(=O)[C@H](Cc2ccccc2)NC(=O)[C@@H]2CCCN2C(=O)[C@@H]2CCCN2C(=O)[C@H](CC(C)C)NC(=O)[C@H](C)NC(=O)[C@H](CC(C)C)NC(=O)[C@H](CC(=O)O)NC(=O)CNC1=O)NC(=O)OCCCCCC (cyclo(ALPPF[Arg(ω,ω'-(C6H13OCO)2)]GDL)) | >4.5 log units |  | 
CC(C)C[C@@H]1NC(=O)[C@H](CC(=O)O)NC(=O)CNC(=O)[C@H](CCCNC(=N)N)NC(=O)[C@H](Cc2ccccc2)NC(=O)[C@@H]2CCCN2C(=O)[C@@H]2CCCN2C(=O)[C@H](CC(C)C)NC(=O)[C@H](C)NC1=O (cyclo(RGDLALPPF)) | −0.19 log units |  | 
CCCCCCOC(=O)N=C(NCCC[C@@H]1NC(=O)[C@@H](C(C)C)N(C)C(=O)[C@H](C)N(C)C(=O)[C@H](C)NC(=O)[C@H](CC(=O)OC)NC(=O)CNC1=O)NC(=O)OCCCCCC | 4.86 log units |  | 
CCCCCCOC(=O)N=C(NCCC[C@@H]1NC(=O)[C@H](CC(C)C)NC(=O)CNC(=O)[C@@H]2CCCN2C(=O)[C@@H]2CCCN2C(=O)[C@H](CC(C)C)NC(=O)[C@H](CC(=O)O)NC(=O)CNC1=O)NC(=O)OCCCCCC (cyclo(LPPGL[Arg(ω,ω'-(C6H13OCO)2)]GD)) | >4.5 log units |  | 
CC(C)[C@H]1C(=O)N[C@@H](CCCNC(=N)N)C(=O)NCC(=O)N[C@@H](CC(=O)O)C(=O)N[C@H](Cc2ccccc2)C(=O)N1C | <−1 log units |  | 
CCCCCCOC(=O)N=C(NCCC[C@H]1NC(=O)[C@H](C(C)C)N(C)C(=O)[C@@H](C)N(C)C(=O)[C@@H](C)NC(=O)[C@@H](CC(=O)OC)NC(=O)CNC1=O)NC(=O)OCCCCCC (cyclo(G[dD](OMe)[dA][dNMeA][NMeV][X1])) | >4.5 log units |  | 
cyclo([dNMeA]RGDA[NMeA]) (NMe(1,6) scaffold cyclic hexapeptide; also called the drug) [peptide 12, c(*aRGDA*A)] |  | 4.8 nM | IC50 (human αvβ5-integrin): 1500 nM; IC50 (human αvβ6-Integrin [2]): 770 nM
cyclo([dR]GDA[NMeA][NMeA]) (NMe(5,6) scaffold cyclic hexapeptide) [peptide 23, c(rGDA*A*A)] |  | 73 nM | IC50 (human αvβ6-Integrin [2]): 130 nM
cyclo([dR]G[NMeD]A[NMeA]A) (NMe(3,5) scaffold cyclic hexapeptide) [peptide 17, c(rG*DA*AA)] |  | 2350 nM | 
cyclo([dNMeR]GDA[NMeA]A) (NMe(1,5) scaffold cyclic hexapeptide) [peptide 5, c(*rGDA*AA)] |  | 13 nM | IC50 (human αvβ5-integrin): 170 nM; IC50 (human αvβ6-Integrin [2]): 25 nM
cyclo([dNMeR]GDA[NMeA]F) (NMe(1,5) scaffold cyclic hexapeptide) [peptide 33, c(*rGDA*AF)] |  | 4.4 nM | IC50 (human αvβ6-Integrin [2]): 25 nM
cyclo([dNMeR]GDA[NMeA]V) (NMe(1,5) scaffold cyclic hexapeptide) [peptide 32, c(*rGDA*AV)] |  | 5.6 nM | IC50 (human αvβ6-Integrin [2]): 3.8 nM
RTDLDSLRT (Internal standard for αvβ6 and αvβ8) [linear peptide RTDLDSLRT] |  |  | IC50 (human αvβ8-Integrin): 8 to 100 nM; IC50 (human αvβ6-Integrin [3]): 6 to 33 nM
